Test results as given in patent US20090291890A1 (published 2009).
Where “and” joins values, the source holds several entries; their conditions need not be identical. Identical values can stand only once.

What was measured:
[1] = target: H257A/Q286R/M298Q-FVIIa (human)
[2] = target: A122N/G124S-FVIIa (human)
[3] = target: A122N/G124S/A175S/Q286R/M298Q-FVIIa (human)
[4] = target: S52A/S60A/S222A/H257A/Q286R/M298Q-FVIIa (human)
[5] = target: S222A/T239I/H257A/Q286R/M298Q-FVIIa (human)
[6] = target: A122N/G124S/A175S/S222A/H257A/Q286R/M298Q-FVIIa (human)
[7] = target: Gla swap FIX/S222A/T239V/Q286R-FVIIa (human)
[8] = target: Gla swap FIX/S222A/Q286R/M298Q/H373F-FVIIa (human)
[9] = target: S222A/T239V-FVIIa (human)
[10] = target: {Gla swap FIX/K43I}/Q286R/M298Q-FVIIa (human)
[11] = target: T239V/Q286R-FVIIa (human)
[12] = target: Gla swap FIX-FVIIa (human)
[13] = target: S52A/S60A/Q286R-FVIIa (human)
[14] = target: A122N/G124S/A175S/S222A-FVIIa (human)
[15] = target: Q286R/M298Q/Q366N-FVIIa (human)
[16] = target: T239I/Q286R-FVIIa (human)
[17] = target: {Gla swap FIX/M19K/E40L/K43I/Q44S}/Q286R/M298Q-FVIIa (human)
[18] = target: A122N/G124S/A175S-FVIIa (human)
[19] = target: M298Q/Q366N/H373F-FVIIa (human)
[20] = target: V158D/T239V/E296V/M298Q-FVIIa (human)
[21] = target: T128N/P129A/A175S/Q286R-FVIIa (human)
[22] = target: A122N/G124S/A175S/Q286R/M298Q/H373F-FVIIa (human)
[23] = target: S222A/Q286R/M298Q/H373F-FVIIa (human)
[24] = target: Q286R/M298Q-FVIIa (human)
[25] = target: {Gla swap FIX/K43I}/T128N/P129A/Q286R/M298Q/Q366N-FVIIa (human)
[26] = target: T128N/P129A/Q286R/M298Q/H373F-FVIIa (human)
[27] = target: T128N/P129A/V158D/E296V/M298Q-FVIIa (human)
[28] = target: Gla swap FIX/S222A/Q286R/M298Q-FVIIa (human)
[29] = target: T128N/P129A/T239V/Q286R/M298Q/H373F-FVIIa (human)
[30] = target: T128N/P129A/Q286R/M298Q/Q366N/H373F-FVIIa (human)
[31] = target: Gla swap FIX/T239V/Q286R/M298Q-FVIIa (human)
[32] = target: T128N/P129A/A175S/S222A-FVIIa (human)
[33] = target: T128N/P129A/T239V/Q286R/M298Q-FVIIa (human)
[34] = target: S52A/S60A/V158D/E296V/M298Q-FVIIa (human)
[35] = target: T128N/P129A/S222A/H257A/Q286R/M298Q-FVIIa (human)
[36] = target: T128N/P129A-FVIIa (human)
[37] = target: T128N/P129A/S222A/T239V/H257A/Q286R/M298Q-FVIIa (human)
[38] = target: Gla swap FIX/S52A/S60A/Q286R/M298Q-FVIIa (human)
[39] = target: T239I/Q286R/M298Q/Q366N-FVIIa (human)
[40] = target: T128N/P129A/T239I/Q286R/M298Q-FVIIa (human)
[41] = target: T239V/Q286R/M298Q/Q366N-FVIIa (human)
[42] = target: {Gla swap FIX/E40L}/Q286R/M298Q-FVIIa (human)
[43] = target: T128N/P129A/A175S/Q286R/M298Q/H373F-FVIIa (human)
[44] = target: H257A/Q286R-FVIIa (human)
[45] = target: T239V/M298Q/H373F-FVIIa (human)
[46] = target: V158D/Q286R/E296V/M298Q/H373F-FVIIa (human)
[47] = target: T128N/P129A/Q286R/M298Q/Q366N-FVIIa (human)
[48] = target: S119N/L121S/A175S-FVIIa (human)
[49] = target: GlaSwapFIX/S222A/T239I/Q286R-FVIIa (human)
[50] = target: S222A/H257A/Q286R/M298Q-FVIIa (human)
[51] = target: S222A/T239V/H257A/Q286R/M298Q-FVIIa (human)
[52] = target: A122N/G124S/A175S/Q286R-FVIIa (human)

Chain of antithrombin III (P01008 33-464): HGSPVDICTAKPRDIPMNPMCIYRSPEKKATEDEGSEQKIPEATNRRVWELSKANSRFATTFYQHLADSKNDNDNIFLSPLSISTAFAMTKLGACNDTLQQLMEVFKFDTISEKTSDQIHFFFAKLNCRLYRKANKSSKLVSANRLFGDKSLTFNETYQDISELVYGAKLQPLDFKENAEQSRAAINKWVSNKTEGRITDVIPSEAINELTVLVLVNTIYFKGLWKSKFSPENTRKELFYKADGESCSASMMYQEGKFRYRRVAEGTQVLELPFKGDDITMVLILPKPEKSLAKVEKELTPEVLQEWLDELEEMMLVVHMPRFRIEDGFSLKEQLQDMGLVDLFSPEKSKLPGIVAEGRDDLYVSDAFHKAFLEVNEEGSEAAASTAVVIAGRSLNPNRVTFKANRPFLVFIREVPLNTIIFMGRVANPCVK

antithrombin III
K0.5 [1]: 391 nM | K0.5 [2]: 372 nM | K0.5 [3]: 1950 nM | K0.5 [4]: 448 nM | K0.5 [5]: 1220 nM | K0.5 [6]: 2970 nM | K0.5 [7]: 2440 nM | K0.5 [8]: 164 nM | K0.5 [9]: 967 nM | K0.5 [10]: 244 nM and 219 nM | K0.5 [11]: 1790 nM | K0.5 [12]: 299 nM | K0.5 [13]: 1320 nM | K0.5 (A175S-FVIIa (human)): 1330 nM | K0.5 [14]: 1550 nM | K0.5 [15]: 324 nM | K0.5 [16]: 5.82 µM | K0.5 [17]: 339 nM | K0.5 [18]: 1350 nM | K0.5 [19]: 90.8 nM | K0.5 (S52A/S60A-FVIIa (human)): 361 nM | K0.5 [20]: 67.7 nM and 67.1 nM | K0.5 [21]: 9.55 µM | K0.5 [22]: 1000 nM | K0.5 [23]: 163 nM | K0.5 [24]: 299 nM and 287 nM and 395 nM | K0.5 [25]: 319 nM | K0.5 [26]: 183 nM | K0.5 [27]: 81.6 nM | K0.5 [28]: 266 nM | K0.5 [29]: 121 nM | K0.5 [30]: 148 nM | K0.5 [31]: 484 nM and 314 nM | K0.5 [32]: 1910 nM | K0.5 [33]: 266 nM | K0.5 [34]: 78.8 nM | K0.5 [35]: 653 nM and 328 nM | K0.5 [36]: 465 nM | K0.5 [37]: 326 nM | K0.5 [38]: 254 nM | K0.5 [39]: 813 nM | K0.5 [40]: 917 nM | K0.5 [41]: 252 nM | K0.5 [42]: 287 nM | K0.5 (Q286R-FVIIa (human)): 1090 nM | K0.5 [43]: 1130 nM | K0.5 [44]: 2800 nM | K0.5 [45]: 46.6 nM | K0.5 [46]: 62.1 nM | K0.5 [47]: 346 nM | K0.5 [48]: 1640 nM | K0.5 [49]: 3.31 µM | K0.5 [50]: 314 nM | K0.5 (wild-type FVIIa (human)): 394 nM and 503 nM | K0.5 [51]: 469 nM | K0.5 [52]: 6.92 µM
